Test results taken from article doi:10.1101/2024.10.22.619416 (bioRxiv, 2024).
Positions count from the first letter of the chain named.

B1: alpaca nanobody 3-2A2-4 (VHH)
VHH: QVQLQESGGGLVQPGESLRLSCAASGSISTLNVMGWYRQAPGKQRELVAQITLDGSPEYADSVKGRFTITKDGAQSTLYLQMNNLKPEDTAVYFCKLENGGFFYYWGQGTQVTVST
B2: humanized nanobody hNb1.1 (VHH)
VHH: EVQLVESGGGLVQPGGSLRLSCAASGSISTLNVMGWFRQAPGKGREWVAAITLDGSPYYADSVKGRFTISRDNAKNTLYLQMNSLRPEDTAVYYCKLENGGFFYYWGQGTQVTVSS
B3: humanized nanobody hNb1.2 (VHH)
VHH: B2 VHH with G35S, F37V, R45L, A49S, A50S, A74S, P87V, Q111L
B4: humanized nanobody hNb1.3 (VHH)
VHH: B2 VHH with G35S, F37V, R45L, A49S, A50S, Y58N, A74S, P87V, Q111L
B5: humanized nanobody hNb1.4 (VHH)
VHH: B2 VHH with F37Y, G44Q, W47L, A50Q, Y58E, P87A
B6: humanized nanobody hNb1.5 (VHH)
VHH: B2 VHH with F37Y, G44Q, W47L, A50Q, Y58E, A74S, R86K
B7: humanized antibody hAb1.1 (antibody, V domains shown)
VH: QVQLQESGPGLVKPSETLSLTCSVSGFSLINYAISWIRQPPGKGLEWIGVIWTGGGTNYNSALKSRLTISRDTSKNQVFLKMNSVTAADTAVYYCARKDYYGRYYGMDYWGQGTLVTVSS
VL: QAVVTQEPSLTVSPGGTVTLTCRSSTGAVTTSNYANWLQQKPGQAPRGLIGGTNNRAPGVPPRFSGSILGDKAALTLSGAQSEDEADYYCALWYNNHWVFGGGTKLTVL
B8: humanized antibody hAb1.2 (antibody, V domains shown)
VH: B7 VH with S23T, P40A, N76S, M82L
VL: B7 VL with L38F, G59W, P62D, I68L, D71G, S82P
B9: humanized antibody hAb1.4 (antibody, V domains shown)
VH: B7 VH with S23T, I37V, P40A, R71V, N76S, F79S, K81R, M82L, N83S
VL: B7 VL with L38F, P62A, D71G, S82P
B10: humanized antibody hAb1.5 (antibody, V domains shown)
VH: B7 VH with S23T, P40A, R71V, N76S, V78F, F79S, M82L, N83S
VL: B7 VL with L38F, K41R, A45P, P62A, D71G, S82P

These binders were tested against SARS-CoV-2 (2019-nCoV) Spike RBD protein (SARS-CoV-2 (2019-nCoV), ancestral …, UniProt P0DTC2) (assay: BLI).
In the case of B1, the Kd is reported as 5.47 nM.
Binder B2 has a Kd of 2.52 nM.
Work on B3 yielded a Kd of 45.7 nM.
B4 was tested, and the Kd was 58.2 nM.
With B5 the Kd was 5.83 nM.
B6 gave a Kd of 7.4 nM.
B7 was tested, and the Kd was 0.27 nM.
For B8, the Kd was 0.15 nM.
With B9 the Kd was 1.03 nM.
With B10 the Kd was 6.37 nM.
